Measured values from patent US20230349919A1.
Values belong to the binder of their own block, whether it stands above or below them.

How the values were obtained:
[1] = target: Der f 1 (house dust mite) (UniProt P16311); assay: barcoded antigen sequencing of single IgE PCs with trapped IgE
[2] = target: Der p 1 (house dust mite) (UniProt P08176); assay: as above
[3] = target: Der p 2 (house dust mite) (UniProt P49278); assay: as above
Ole e 1 (olive) [4] = target: Ole e 1 (olive) (UniProt P19963); assay: as above
Ole e 1 (olive), sequence (P19963 whole entry): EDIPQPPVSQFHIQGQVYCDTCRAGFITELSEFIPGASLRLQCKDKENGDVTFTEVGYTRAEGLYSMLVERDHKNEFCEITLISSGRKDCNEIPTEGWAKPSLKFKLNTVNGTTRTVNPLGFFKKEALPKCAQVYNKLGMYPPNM

[5] = target: Der f 1 (house dust mite) (UniProt P16311); assay: barcoded antigen sequencing of single IgE PCs with trapped IgE [cont.]
[6] = target: Der p 1 (house dust mite) (UniProt P08176); assay: as above
[7] = target: Der p 2 (house dust mite) (UniProt P49278); assay: as above
Ole e 1 (olive) [8] = target: Ole e 1 (olive) (UniProt P19963); assay: as above
[9] = target: Der f 1 (house dust mite) (UniProt P16311); assay: antigen specificity score against Ole e 1 from barcode counts of single IgE PCs [cont.]
[10] = target: Der p 1 (house dust mite) (UniProt P08176); assay: as above
[11] = target: Der p 2 (house dust mite) (UniProt P49278); assay: as above
[12] = target: Der f 1 (house dust mite) (UniProt P16311); assay: centered log-ratio of barcode count
[13] = target: Der p 1 (house dust mite) (UniProt P08176); assay: centered log-ratio of barcode count
[14] = target: Der f 1 (house dust mite) (UniProt P16311); assay: barcoded-antigen count on source cell
[15] = target: Der p 1 (house dust mite) (UniProt P08176); assay: barcoded-antigen count on source cell
[16] = target: Der f 1 (house dust mite) (UniProt P16311); assay: barcode rank score against control Ole e 1
[17] = target: Der p 1 (house dust mite) (UniProt P08176); assay: barcode rank score against control Ole e 1

Der p 1 (house dust mite), sequence (P08176 99-320 limits assumed): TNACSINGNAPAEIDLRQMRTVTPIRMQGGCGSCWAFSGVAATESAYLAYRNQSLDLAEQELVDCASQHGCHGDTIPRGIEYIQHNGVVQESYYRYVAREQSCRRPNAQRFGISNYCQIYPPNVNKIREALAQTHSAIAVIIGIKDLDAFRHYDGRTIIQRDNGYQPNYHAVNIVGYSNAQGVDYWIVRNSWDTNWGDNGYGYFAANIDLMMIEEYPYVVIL
Der f 1 (house dust mite), sequence (P16311 99-321 limits assumed): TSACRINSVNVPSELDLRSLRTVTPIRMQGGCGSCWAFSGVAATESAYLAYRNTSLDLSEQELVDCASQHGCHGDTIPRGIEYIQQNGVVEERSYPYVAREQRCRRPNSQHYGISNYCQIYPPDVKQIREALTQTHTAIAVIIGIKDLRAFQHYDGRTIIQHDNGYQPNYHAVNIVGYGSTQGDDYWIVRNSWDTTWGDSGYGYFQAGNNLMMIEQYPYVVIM
Der p 2 (house dust mite), sequence (P49278 18-146 limits assumed): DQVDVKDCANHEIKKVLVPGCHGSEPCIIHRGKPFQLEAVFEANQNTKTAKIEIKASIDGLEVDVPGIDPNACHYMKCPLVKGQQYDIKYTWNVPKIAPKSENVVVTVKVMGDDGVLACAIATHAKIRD

Raw Antigen Barcode Count [1]: 15
Raw Antigen Barcode Count [2]: 16
Raw Antigen Barcode Count [3]: 46
Raw Antigen Barcode Count (Ole e 1 (olive) [4]): 1
Normalized Barcode Count [5]: 0.82
Normalized Barcode Count [6]: 0.981
Normalized Barcode Count [7]: 1.62
Normalized Barcode Count (Ole e 1 (olive) [8]): 0.029
Antigen Score [9]: 0.765
Antigen Score [10]: 0.775
Antigen Score [11]: 0.858
B1: Candidate ID 9 (antibody, V domains shown)
VH: EVQLQQSGPELVKPGASVKISCKASGYTFTDYYMNWVKQSHGKSLEWIGDINPNNGGTSYNQKFKGKATLTVDKSSSTAYMELRSLTSEDSAVYYCAYGPPRGPPWFAYWGQGTLVTVSA
VL: DIVLTQSPASLAVSLGQRATISCRASKSVSTSGYSYMHWYQQKPGQPPKLLIYLASNLESGVPARFSGSGSGTDFTLNIHPVEEEDAATYYCQHSRELPWTFGGGTKLEIK

Derf1 ab clr [12]: 0.82
Derp1 ab clr [13]: 0.981
Derf1 ab raw [14]: 15 counts
Derp1 ab raw [15]: 16 counts
Derf1 ab rank [16]: 0.765
Derp1 ab rank [17]: 0.775
B2: IgE mAb 13_2 (antibody, V domains shown)
VH: B1 VH
VL: B1 VL

Raw Antigen Barcode Count [1]: 32
Raw Antigen Barcode Count [2]: 29
Raw Antigen Barcode Count [3]: 22
Raw Antigen Barcode Count (Ole e 1 (olive) [4]): 0
Normalized Barcode Count [5]: 1.18
Normalized Barcode Count [6]: 0.862
Normalized Barcode Count [7]: 0.655
Normalized Barcode Count (Ole e 1 (olive) [8]): -1.13
Antigen Score [9]: 0.97
Antigen Score [10]: 0.89
Antigen Score [11]: 0.837
B3: Candidate ID 7 (antibody, V domains shown)
VH: QVLLKESGPGLVAPSQSLSITCTVSGFSLTSYGVSWVRQPPGKGLEWLGVIWGDGNTDYHSALISRLSIRKDNSKSQVFLKLNSLQTDDTATYYCAIGSPFAYWGQGTLVTVSA
VL: DVLMTQTPLSLPVSLGDQVSISCRSSQNIVHSTGNTYLEWYLQKPGQSPKLLIFKVSNRLSGVPDRFSGSGSGTDFTLNISRVEAADLGIYSCFQGSHVPFTFGSGTKLEIK
